Laboratory results: the supplement of paper PMC10567573
± gives the standard deviation.

Test: protein stability index of a GFP-peptide fusion (GPS, HEK-293T) (PSI 1-6); higher = more stable
[1] = treatment: DMSO, c terminus: a fixed tail appended
[2] = treatment: MLN4924 1 uM, 8 h, c terminus: a fixed tail appended
[3] = treatment: DMSO, c terminus: native
[4] = treatment: MLN4924 1 uM, 8 h, c terminus: native
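Also: 24-mer peptide tiles fused after GFP, lentivirally expressed, FACS-sorted into six equal bins by GFP/DsRed ratio, decoded by Illumina sequencing, PSI is the read-weighted mean bin number.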

With MVFIAGILLNGVSGWIFFYVPSSE [P2RY14] the protein stability index [1] was 2.94 ± 0.34 and the protein stability index [2] was 2.84 ± 0.51.
ADRQCQLTFGPDSRHCPQLPPPCA [ADAMTS4] showed a protein stability index [1] of 4.08 ± 0.16 and a protein stability index [2] of 4.08 ± 0.081.
Sequence FYSAYLVAEKVVVITKHNDDEQYA [HSP90AB1] has a protein stability index [1] of 2.18 ± 0.23 and a protein stability index [2] of 2.11 ± 0.43.
Sequence TNDGNHPSCQETRDYAPPSRGYAY [RBMY1A1] has a protein stability index [1] of 4.33 ± 0.12 and a protein stability index [2] of 4.36 ± 0.11.
Sequence EDPYMMGRIACANVLSDLYAMGIT [SEPHS2] has a protein stability index [1] of 2.39 ± 0.19 and a protein stability index [2] of 2.36 ± 0.18.
With VFGVPLTVNVQRTGQPLPQSIQQA [DLC1] the protein stability index [1] was 2.79 ± 0.2 and the protein stability index [2] was 3 ± 0.43.
AEIATASASASTTTTVTAVTAEVD [SNAP91] gave a protein stability index [1] of 5.62 ± 0.23 and a protein stability index [2] of 5.47 ± 0.39.
KIKPEARRYLEKSIKMGKRNGLHL [NLN] showed a protein stability index [1] of 2.3 ± 0.44 and a protein stability index [2] of 2.53 ± 0.39.
Work on ARFAEKEELMLVHSLEYIDLMETT [HDAC6] yielded a protein stability index [1] of 2.66 ± 0.17 and a protein stability index [2] of 2.75 ± 0.38.
LLLLQVSSSYAGQFRVIGPRHPIR [MOG] gave a protein stability index [1] of 2.53 ± 0.51 and a protein stability index [2] of 2.04 ± 0.22.
Work on GNTESELKKLAEENPDLQEAYIAK [GDAP1] yielded a protein stability index [1] of 5.51 ± 0.26 and a protein stability index [2] of 5.5 ± 0.26.
In the case of SNGSMHNYCPQQTKITSAFKYINT [EDNRA], the protein stability index [1] is reported as 2.36 ± 0.35 and the protein stability index [2] is reported as 2.6 ± 0.26.
PEYTYGISNIDTTIEGTSDDLTVV [MFF] gave a protein stability index [1] of 4.61 ± 0.15 and a protein stability index [2] of 4.56 ± 0.078.
With RLASYLDKVRALEEANADLEVKIH [KRT15] the protein stability index [1] was 2.33 ± 0.15 and the protein stability index [2] was 2.67 ± 0.22.
For HSQRTALHLAAQKALRTISTGRI [INVS], the protein stability index [3] was 3.08 ± 0.9 and the protein stability index [4] was 2.36 ± 0.086.
Sequence SAASVYAGAGGSGSRISVSRSTSF [KRT18] has a protein stability index [1] of 3.66 ± 0.066 and a protein stability index [2] of 3.59 ± 0.28.
Work on LQLLHECSPSQMDLLCAQLQLPQL [FANCE] yielded a protein stability index [1] of 2.33 ± 0.27 and a protein stability index [2] of 2.49 ± 0.11.
For AFSYSSSSRFSSSRLLGSASPSSS [PRPH], the protein stability index [1] was 3.04 ± 0.21 and the protein stability index [2] was 3.09 ± 0.051.
For DDIVSGRLPCSFVTLALLGSYTVQ [EPB41L3], the protein stability index [1] was 2.72 ± 0.44 and the protein stability index [2] was 2.53 ± 0.53.
Work on ANGEIQRHAEQQALRLEVRAGPDS [CARM1] yielded a protein stability index [1] of 4.56 ± 0.67 and a protein stability index [2] of 4.74 ± 0.19.
In the case of KEYDVARNTGAYTSSGLATASFRT [TEKT4], the protein stability index [1] is reported as 3.6 ± 0.26 and the protein stability index [2] is reported as 3.69 ± 0.14.
ITSSVFPSASLGKASSRKPFGILS [FBXO34] gave a protein stability index [1] of 2.65 ± 0.12 and a protein stability index [2] of 2.67 ± 0.21.
Sequence HTTIVATRHYRPPEVILELGWAQP [CLK3] has a protein stability index [1] of 2.26 ± 0.26 and a protein stability index [2] of 2.23 ± 0.16.
With AGQVTALPVNSPMNKGDTEVMKCI [CHGA] the protein stability index [1] was 4.12 ± 0.34 and the protein stability index [2] was 4.57 ± 0.22.
With GESFPAQVPSGEDQTALSLEECLR [NFE2L1] the protein stability index [1] was 5.08 ± 0.89 and the protein stability index [2] was 5.15 ± 0.076.
Sequence EEKMETKTESSGIETEPTVHHLPL [EPB41L3] has a protein stability index [1] of 5.56 ± 0.37 and a protein stability index [2] of 5.49 ± 0.27.
Sequence LWLRPEVHTKEQILELLVLEQFLA [ZNF396] has a protein stability index [1] of 2.54 ± 0.5 and a protein stability index [2] of 2.73 ± 0.49.
GMASFRFPETTFISVTAYQNPQIT [TBX6] showed a protein stability index [1] of 2.34 ± 0.62 and a protein stability index [2] of 2.29 ± 0.11.
Work on GRRAATALLWLSCSIALLRALATS [GNAS] yielded a protein stability index [1] of 2.26 ± 0.37 and a protein stability index [2] of 2.02 ± 0.24.
Work on VDENDSHEGEDQFLSLEASTETLV [DLC1] yielded a protein stability index [1] of 5.66 ± 0.16 and a protein stability index [2] of 5.56 ± 0.2.
Sequence ALHCPTGTEYTCKVYPVQEALAVL [TRIB3] has a protein stability index [1] of 2.27 ± 0.39 and a protein stability index [2] of 2.28 ± 0.32.
Sequence HQPPYIIAVLPRYVEIRTFEPRLL [VPS39] has a protein stability index [1] of 2.61 ± 0.75 and a protein stability index [2] of 2.38 ± 0.37.
LSRLQRVKFCLLGALLAPIRVLLA [LPCAT4] gave a protein stability index [1] of 3.67 ± 0.42 and a protein stability index [2] of 3.58 ± 0.14.
Work on VTLLVALKVRYRERITILRGNHES [PPP2CA] yielded a protein stability index [1] of 2.78 ± 0.5 and a protein stability index [2] of 2.67 ± 0.44.
With AILLDAHHKTYDPTYSDFCQFRPP [VDR] the protein stability index [1] was 2.31 ± 0.2 and the protein stability index [2] was 2.34 ± 0.29.
RTRPRKPIRCGEVLFAVGGWCSGD [KLHL20] showed a protein stability index [1] of 2.39 ± 0.28 and a protein stability index [2] of 2.17 ± 0.33.
In the case of MCYGYGCGCGSFCRLGYGCGYEGC [KRTAP19-2], the protein stability index [1] is reported as 2.35 ± 0.23 and the protein stability index [2] is reported as 2.43 ± 0.54.
For TSYYIRYRGAVYADSGNFKRCINL [FEM1C], the protein stability index [1] was 2.48 ± 0.51 and the protein stability index [2] was 2.33 ± 0.57.
KRKRVKQRINTYVFVGNQLIPQPL [PCMTD1] showed a protein stability index [1] of 2.38 ± 0.17 and a protein stability index [2] of 2.73 ± 0.35.
In the case of APSATIHQGEEEGPLDIWAVVKPG [FBXO34], the protein stability index [1] is reported as 4.71 ± 0.27 and the protein stability index [2] is reported as 4.79 ± 0.13.
For NGINLFDTAEVYAAGKAEVVLGNI [KCNAB2], the protein stability index [1] was 2.89 ± 0.3 and the protein stability index [2] was 3 ± 0.3.
FVGDLSPEITTEDIKAAFAPFGRI [TIA1] gave a protein stability index [1] of 3.11 ± 1 and a protein stability index [2] of 2.7 ± 0.18.
With RAEGTDIPTVKPLKPRPEPPKKPS [ZC2HC1A] the protein stability index [1] was 5.38 ± 0.18 and the protein stability index [2] was 5.4 ± 0.27.
YDFMNSAFSPIVILTERVSLPFKP [MIA2] showed a protein stability index [1] of 2.22 ± 0.62 and a protein stability index [2] of 2.17 ± 0.18.
EIIEGNTKSHIMLVQRQMSVIEED [NECAB1] gave a protein stability index [1] of 3.56 ± 0.35 and a protein stability index [2] of 3.73 ± 0.26.
SPSENSKEAEILEVLRHPRDWVR [CPOX] gave a protein stability index [3] of 4.42 ± 0.15 and a protein stability index [4] of 4.53 ± 0.26.
With RPSFNRTPIPWLSSGEPVDYNVDI [MYOZ1] the protein stability index [1] was 3.57 ± 0.5 and the protein stability index [2] was 3.66 ± 0.39.
IAAATSVLKTRFSYAFPKEFPYRM [CCNC] showed a protein stability index [1] of 2.08 ± 0.12 and a protein stability index [2] of 2.58 ± 0.51.
In the case of KETLAVNYEKEEEFLTNELSRKLM [CCDC6], the protein stability index [1] is reported as 4.05 ± 0.25 and the protein stability index [2] is reported as 4.44 ± 0.27.
Work on MSDLLSVFLHLLLLFKLVAPVTFR [CPN1] yielded a protein stability index [1] of 3.09 ± 0.26 and a protein stability index [2] of 3.33 ± 0.17.
SSNKKEKKVLNHGYDDDNHDYIVR [DYRK1B] showed a protein stability index [1] of 4.55 ± 0.22 and a protein stability index [2] of 4.45 ± 0.19.
VVTMTTVGYGDMHPVTIGGKIVGS [KCNA3] gave a protein stability index [1] of 2.33 ± 0.4 and a protein stability index [2] of 2.37 ± 0.45.
In the case of VLEVTEESIDFDQGELADQDVDPV [FBXO33], the protein stability index [1] is reported as 5.34 ± 0.19 and the protein stability index [2] is reported as 5.57 ± 0.2.
Sequence EPEKIYAMPDPTVPDSDIKALTTL [ESRRG] has a protein stability index [1] of 4.46 ± 0.15 and a protein stability index [2] of 4.6 ± 0.2.
Sequence EIEQYRLQREKEFKAKEAAALGSR [ATP6V1G1] has a protein stability index [1] of 4.15 ± 0.21 and a protein stability index [2] of 3.77 ± 0.047.
Work on TGGPDACLRCWDQRTIMKPLEYQF [TLE6] yielded a protein stability index [1] of 2.29 ± 0.17 and a protein stability index [2] of 2.74 ± 0.27.
For DPDGLVATYISEVHEHDGHLYLGS [APMAP], the protein stability index [1] was 3.87 ± 0.18 and the protein stability index [2] was 3.94 ± 0.39.
With QKLDAFLQPLSKPLSSQPQAIVTE [MLH1] the protein stability index [1] was 4.17 ± 0.3 and the protein stability index [2] was 4.21 ± 0.21.
AGSTAGAAETRGAVEGAARTTPSR [PALM] gave a protein stability index [1] of 5.11 ± 0.36 and a protein stability index [2] of 5.14 ± 0.27.
Sequence LQEVPTGLDSISHDSANCELPLLT [ETS2] has a protein stability index [1] of 4.71 ± 0.12 and a protein stability index [2] of 4.92 ± 0.42.
Sequence EGQRQAQEYEALLNIKVKLEAEIA [KRT18] has a protein stability index [1] of 3.94 ± 0.18 and a protein stability index [2] of 4 ± 0.43.
With LRPSYTGLSSSSARFLSRSIPSLQ [CDC14A] the protein stability index [1] was 3.04 ± 0.38 and the protein stability index [2] was 2.85 ± 0.29.
HIDIVKELIKWRAAIVVNGHGMTP [FEM1B] gave a protein stability index [1] of 2.15 ± 0.53 and a protein stability index [2] of 2.17 ± 0.26.
FSASERLSLKRELSWYRGRRPRTA [HESX1] gave a protein stability index [1] of 2.7 ± 0.28 and a protein stability index [2] of 3.22 ± 0.32.
For ALVIMWQKHYVYGPLPQSFDKEWV [COX4I1], the protein stability index [1] was 2.88 ± 0.33 and the protein stability index [2] was 2.92 ± 0.39.
